{"source": "patent US20220281966A1", "binders": {"B1": {"name": "human IL-13 receptor α2/Fc (Fc fusion, UniProt Q14627 27-343, looked up, not shown: a dimerising Fc or GST)", "chain": "DTEIKVNPPQDFEIVDPGYLGYLYLQWQPPLSLDHFKECTVEYELKYRNIGSETWKTIITKNLHYKDGFDLNKGIEAKIHTLLPWQCTNGSEVQSSWAETTYWISPQGIPETKVQDMDCVYYNWQYLLCSWKPGIGVLLDTNYNLFYWYEGLDHALQCVDYIKADGQNIGCRFPYLEASDYKDFYICVNGSSENKPIRSSYFTFQLQNIVKPLPPVYLTFTRESSCEIKLKWSIPLGPIPARCFDYEIEIREDDTTLVTATVENETYTLKTTNETRQLCFVVRSKVNIYCSDDGIWSEWSDKQCWEGEDLSKKTLLR"}, "B2": {"name": "murine IL-13 receptor α2/FC (Fc fusion, UniProt O88786 22-334, looked up, not shown: a dimerising Fc or GST)", "chain": "LEIKVNPPQDFEILDPGLLGYLYLQWKPPVVIEKFKGCTLEYELKYRNVDSDSWKTIITRNLIYKDGFDLNKGIEGKIRTHLSEHCTNGSEVQSPWIEASYGISDEGSLETKIQDMKCIYYNWQYLVCSWKPGKTVYSDTNYTMFFWYEGLDHALQCADYLQHDEKNVGCKLSNLDSSDYKDFFICVNGSSKLEPIRSSYTVFQLQNIVKPLPPEFLHISVENSIDIRMKWSTPGGPIPPRCYTYEIVIREDDISWESATDKNDMKLKRRANESEDLCFFVRCKVNIYCADDGIWSEWSEEECWEGYTGPDSK"}}, "target": "IL-13 (human IL-13, preparation not specified) (human) (UniProt P35225)", "sequence (P35225 35-146 limits assumed)": "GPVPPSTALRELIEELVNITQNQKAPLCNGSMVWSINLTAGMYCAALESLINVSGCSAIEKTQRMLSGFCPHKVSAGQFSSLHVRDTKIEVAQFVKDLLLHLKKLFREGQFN", "assay": "cell-based or functional assay"}
{"binder": "B1", "values": [{"measurement": "IC50, Eotaxin-1 assay, Average", "value": 131, "unit": "pM"}, {"measurement": "IC50, Eotaxin-1 assay, n = 1", "value": 128, "unit": "pM"}, {"measurement": "IC50, Eotaxin-1 assay, n = 2", "value": 147, "unit": "pM"}, {"measurement": "IC50, Eotaxin-1 assay, n = 3", "value": 119, "unit": "pM"}]}
{"binder": "B2", "values": [{"measurement": "IC50, Eotaxin-1 assay, Average", "value": 32, "unit": "pM"}, {"measurement": "IC50, Eotaxin-1 assay, n = 1", "value": 29, "unit": "pM"}, {"measurement": "IC50, Eotaxin-1 assay, n = 2", "value": 39, "unit": "pM"}, {"measurement": "IC50, Eotaxin-1 assay, n = 3", "value": 29, "unit": "pM"}]}
